Test results as given in publication PMC9482650, “Quantitative fragmentomics allow affinity mapping of interactomes” (Nature Communications, 2022).
Changes are numbered by the printed parent chain.

How the values were obtained:
Assay in all cases: holdup assay
Set-up in all cases: key: below the threshold = too weak to quantify, mostly under pKd 3.1 to 4
[1] = molecular target: T1, ARHGAP21, Q5T5U3
T1 sequence (Q5T5U3 45-169, limits assumed, looked up): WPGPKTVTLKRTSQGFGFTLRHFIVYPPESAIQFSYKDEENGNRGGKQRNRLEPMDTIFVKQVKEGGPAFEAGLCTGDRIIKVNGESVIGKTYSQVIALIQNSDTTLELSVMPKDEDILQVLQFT

[2] = molecular target: T2, ARHGEF11, O15085
T2 sequence (O15085 42-136, limits assumed, looked up): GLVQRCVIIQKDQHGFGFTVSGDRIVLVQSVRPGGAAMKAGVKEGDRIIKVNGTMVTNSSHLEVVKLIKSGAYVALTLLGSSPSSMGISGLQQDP

[3] = molecular target: T3, DFNB31_3, Q9P202
T3 sequence (Q9P202 811-907, limits assumed, looked up): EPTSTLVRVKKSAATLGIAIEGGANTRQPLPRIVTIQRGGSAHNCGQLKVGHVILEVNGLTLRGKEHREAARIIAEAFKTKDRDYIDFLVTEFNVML

[4] = molecular target: DLG4_2, P78352
Sequence of DLG4_2, P78352 (P78352 155-259): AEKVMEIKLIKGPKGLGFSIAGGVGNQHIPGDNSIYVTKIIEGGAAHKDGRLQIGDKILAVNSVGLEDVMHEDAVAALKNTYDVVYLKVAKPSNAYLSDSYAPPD

[5] = molecular target: T4, FRMPD1, Q5SYB0
T4 sequence (Q5SYB0 52-145, limits assumed, looked up): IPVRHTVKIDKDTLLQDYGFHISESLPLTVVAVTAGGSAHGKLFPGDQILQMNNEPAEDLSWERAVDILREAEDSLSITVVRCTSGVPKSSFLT

[6] = molecular target: GIPC2, Q8TF65
Sequence of GIPC2, Q8TF65 (Q8TF65 112-203): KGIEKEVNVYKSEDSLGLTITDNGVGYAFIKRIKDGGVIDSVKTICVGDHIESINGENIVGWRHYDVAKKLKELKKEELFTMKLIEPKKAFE

[7] = molecular target: GRID2IP_2, A4D2P6
Sequence of GRID2IP_2, A4D2P6 (A4D2P6 272-370): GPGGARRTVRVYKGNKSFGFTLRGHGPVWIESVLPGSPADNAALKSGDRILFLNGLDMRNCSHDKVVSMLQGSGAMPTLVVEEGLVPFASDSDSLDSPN

[8] = molecular target: T5, GRIP1_5, Q9Y3R0
T5 sequence (Q9Y3R0 568-668, limits assumed, looked up): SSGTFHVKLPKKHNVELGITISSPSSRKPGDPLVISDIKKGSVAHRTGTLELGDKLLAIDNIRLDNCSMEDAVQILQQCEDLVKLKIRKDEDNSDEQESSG

[9] = molecular target: GRIP2_4, Q9C0E4
Sequence of GRIP2_4, Q9C0E4 (Q9C0E4 446-548): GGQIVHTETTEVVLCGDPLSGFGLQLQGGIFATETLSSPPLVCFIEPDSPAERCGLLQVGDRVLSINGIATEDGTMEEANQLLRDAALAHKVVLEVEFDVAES

[10] = molecular target: IL16_3, Q14005
Sequence of IL16_3, Q14005 (Q14005 1107-1207): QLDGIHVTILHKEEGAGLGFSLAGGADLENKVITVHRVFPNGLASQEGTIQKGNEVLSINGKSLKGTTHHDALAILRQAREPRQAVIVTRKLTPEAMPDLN

[11] = molecular target: Inadl_10, Q8NI35
Sequence of Inadl_10, Q8NI35 (Q8NI35 1673-1763): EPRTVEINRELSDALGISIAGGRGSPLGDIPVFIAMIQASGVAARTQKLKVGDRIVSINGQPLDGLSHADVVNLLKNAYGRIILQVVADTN

[12] = molecular target: Inadl_8, Q8NI35
Sequence of Inadl_8, Q8NI35 (Q8NI35 1425-1530): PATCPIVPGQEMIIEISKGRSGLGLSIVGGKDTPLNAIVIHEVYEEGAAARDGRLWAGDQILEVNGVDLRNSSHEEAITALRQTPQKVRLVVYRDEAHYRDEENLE

[13] = molecular target: T6, LIN7B, Q9HAP6
T6 sequence (Q9HAP6 88-185, limits assumed, looked up): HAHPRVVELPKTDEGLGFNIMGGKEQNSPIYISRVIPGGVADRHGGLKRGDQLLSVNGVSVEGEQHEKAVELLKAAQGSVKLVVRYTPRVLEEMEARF

[14] = molecular target: T7, LIN7C, Q9NUP9
T7 sequence (Q9NUP9 88-185, limits assumed, looked up): T6 sequence (Q9HAP6 88-185, limits assumed, looked up) with A2S, D13E, V35I, V40I, Q65H, S79K, R89K, A96S

[15] = molecular target: LNX1_1, Q8TBB1
Sequence of LNX1_1, Q8TBB1 (Q8TBB1 261-371): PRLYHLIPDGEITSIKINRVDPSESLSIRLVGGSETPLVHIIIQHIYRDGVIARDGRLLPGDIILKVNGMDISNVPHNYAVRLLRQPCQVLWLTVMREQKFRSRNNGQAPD

[16] = molecular target: MAGI2_4, Q86UL8
Sequence of MAGI2_4, Q86UL8 (Q86UL8 772-865): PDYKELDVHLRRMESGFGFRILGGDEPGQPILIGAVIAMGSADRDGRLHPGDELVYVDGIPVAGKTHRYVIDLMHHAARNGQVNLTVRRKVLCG

[17] = molecular target: T8, MPP2, Q14168
T8 sequence (Q14168 180-250, limits assumed, looked up): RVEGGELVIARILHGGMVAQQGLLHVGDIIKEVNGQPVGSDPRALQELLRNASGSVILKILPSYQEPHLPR

[18] = molecular target: T9, NHERF3_3, Q5T2W1
T9 sequence (Q5T2W1 238-333, limits assumed, looked up): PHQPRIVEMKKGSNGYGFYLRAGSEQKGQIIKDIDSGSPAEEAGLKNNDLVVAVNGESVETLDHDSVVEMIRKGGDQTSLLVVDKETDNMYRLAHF

[19] = molecular target: NHERF4_2, Q86UT5
Sequence of NHERF4_2, Q86UT5 (Q86UT5 220-308): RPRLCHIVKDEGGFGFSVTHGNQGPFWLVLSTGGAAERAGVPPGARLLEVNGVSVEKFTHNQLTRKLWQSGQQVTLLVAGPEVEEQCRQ

[20] = molecular target: NOS1, P29475
Sequence of NOS1, P29475 (P29475 9-101): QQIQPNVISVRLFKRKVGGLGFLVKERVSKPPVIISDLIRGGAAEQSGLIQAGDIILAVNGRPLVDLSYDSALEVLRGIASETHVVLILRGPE

[21] = molecular target: T10, PARD3B_1, Q8TEW8
T10 sequence (Q8TEW8 196-299, limits assumed, looked up): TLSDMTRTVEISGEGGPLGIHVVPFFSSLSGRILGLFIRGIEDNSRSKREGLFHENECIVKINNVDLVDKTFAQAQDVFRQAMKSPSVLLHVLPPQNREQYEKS

[22] = molecular target: PARD3_3, Q8TEW0
Sequence of PARD3_3, Q8TEW0 (Q8TEW0 582-685): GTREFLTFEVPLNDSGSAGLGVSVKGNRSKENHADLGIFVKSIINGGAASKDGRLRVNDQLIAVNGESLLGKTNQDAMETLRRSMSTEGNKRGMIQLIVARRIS

[23] = molecular target: T11, PCLO, Q9Y6V0
T11 sequence (Q9Y6V0 4491-4600, limits assumed, looked up): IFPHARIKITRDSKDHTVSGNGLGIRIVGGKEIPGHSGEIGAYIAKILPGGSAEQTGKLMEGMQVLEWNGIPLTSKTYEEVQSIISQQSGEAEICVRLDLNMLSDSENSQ

[24] = molecular target: T12, PTPN13_1, Q12923
T12 sequence (Q12923 1088-1188, limits assumed, looked up): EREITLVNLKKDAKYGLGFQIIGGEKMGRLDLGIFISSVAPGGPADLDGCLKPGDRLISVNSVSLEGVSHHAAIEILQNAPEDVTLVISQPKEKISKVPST

[25] = modified: phospho on T at position -2 from the C-terminal residue
[26] = plain residues with an end cap or a label only (N-terminal biotin on a linker: ado-ado)
[27] = modified: phospho on T at position -1 from the C-terminal residue

Measured: pKd

B1: RPS6KA1_-2P, Q15418 (peptide)
chain: RRVRKLPSTTL
below the threshold: [1]; [25] | [2]; [25] | [3]; [25] | [4]; [25] | [5]; [25] | [6]; [25] | [7]; [25] | [8]; [25] | [9]; [25] | [10]; [25] | [11]; [25] | [12]; [25] | [13]; [25] | [14]; [25] | [15]; [25] | [16]; [25] | [17]; [25] | [18]; [25] | [19]; [25] | [20]; [25] | [22]; [25] | [23]; [25] | [24]; [25]
3.9: [21]; [25]

B2: AKAP10, O43572 (peptide)
chain: DQPLEKSTKL
4.2: [2]; [26]
4.75: [7]; [26]
4.15: [21]; [26]
3.68: [3]; [26]
4.79: [18]; [26]
below the threshold: [1]; [26] | [4]; [26] | [5]; [26] | [6]; [26] | [8]; [26] | [9]; [26] | [10]; [26] | [11]; [26] | [12]; [26] | [13]; [26] | [14]; [26] | [15]; [26] | [16]; [26] | [17]; [26] | [19]; [26] | [20]; [26] | [22]; [26] | [23]; [26] | [24]; [26]

B3: RPS6KA1_-1P, Q15418 (peptide)
chain: RRVRKLPSTTL
3.55: [6]; [27]
3.4: [24]; [27]
4.29: [2]; [27]
3.78: [3]; [27]
below the threshold: [1]; [27] | [5]; [27] | [8]; [27] | [9]; [27] | [10]; [27] | [17]; [27] | [19]; [27] | [20]; [27] | [23]; [27]
3.56: [13]; [27] | [14]; [27]
3.84: [22]; [27]
4.32: [16]; [27]
3.54: [11]; [27]
3.85: [4]; [27]
4.22: [7]; [27]
4.63: [15]; [27]
3.57: [12]; [27]
4.04: [21]; [27]
3.36: [18]; [27]

B4: AKIP1, Q9NQ31 (peptide)
chain: GQSVDLVFPV
3.8: [21]; [26]
4.09: [2]; [26]
below the threshold: [3]; [26] | [4]; [26] | [5]; [26] | [6]; [26] | [7]; [26] | [8]; [26] | [9]; [26] | [10]; [26] | [11]; [26] | [12]; [26] | [13]; [26] | [14]; [26] | [16]; [26] | [17]; [26] | [18]; [26] | [19]; [26] | [23]; [26] | [24]; [26]
3.93: [20]; [26]
3.66: [15]; [26] | [22]; [26]
4.16: [1]; [26]

B5: SH2D3C, Q8N5H7 (peptide)
chain: LEPAVRSSEL
3.72: [1]; [26]
below the threshold: [3]; [26] | [4]; [26] | [5]; [26] | [6]; [26] | [8]; [26] | [9]; [26] | [10]; [26] | [11]; [26] | [12]; [26] | [13]; [26] | [14]; [26] | [16]; [26] | [17]; [26] | [18]; [26] | [19]; [26] | [20]; [26] | [21]; [26] | [22]; [26] | [23]; [26] | [24]; [26]
3.67: [15]; [26]
4.18: [2]; [26]
4.38: [7]; [26]

B6: MARCHF4, Q9P2E8 (peptide)
chain: RELVMRVTTV
4.2: [13]; [26]
4.3: [14]; [26]
5.5: [12]; [26]
4.71: [2]; [26]
3.71: [20]; [26]
4.06: [7]; [26]
4.82: [16]; [26]
3.98: [15]; [26]
4.33: [3]; [26]
below the threshold: [1]; [26] | [5]; [26] | [6]; [26] | [8]; [26] | [9]; [26] | [10]; [26] | [11]; [26] | [17]; [26] | [18]; [26] | [19]; [26] | [21]; [26] | [22]; [26] | [23]; [26] | [24]; [26]
5.28: [4]; [26]
